The subject of one assay is Nurr1-RXR heterodimer. In words: Nurr1-RXR heterodimer-mediated transactivation, βRE luciferase reporter in JEG3 cells. The class given is cell-based, human. The note with it: βRE-tk luciferase reporter, RXR ligand SR11237 1 μM, effect of the mutation vs wild-type Nurr1. As for the experimental part: The wild-type and mutated Nurr1 derivatives were transfected in JEG3 cells. The ability to transactivate was assessed using a luciferase reporter gene driven by three copies of the hRARβ2 promoter RARE (βRE) upstream of a thymidine kinase promoter.
The influence of the I-box mutations on Nurr1 transcriptional activity and on the ability to interact with RXR was examined as described by Perlmann and Jansson 1995, Zetterström et al. 1996, and Castro et al. 1999. Nurr1-RXR heterodimer-mediated transactivation was studied in human chorion carcinoma JEG3 cells. The cells were maintained in minimum essential medium supplemented with 10% fetal calf serum. Transfections were performed in quadruplicates in 24-well plates using the calcium phosphate precipitation method. The cells were plated 24 h prior to the transfection. Each well was transfected with 100 ng of the expression vector for the Nurr1 variants, 100 ng of a reporter plasmid, and 200 ng of βgalactoside plasmid that was used as an internal control for transfection efficiency. The luciferase reporter used was driven by three copies of the retinoid acid response element (RARE) of the human retinoid acid receptorβ2 (hRARβ2) gene promoter (βRE) upstream of the thymidine kinase promoter. 6-8 hours after transfection, the cells received fresh medium supplemented with 10% charcoal-stripped fetal calf,serum and RXR ligand (SR11237;1 μM). The cells were harvested 24 hours late and lysed. The cells extracts were assayed for luciferase and βgalactosidase activity. The ability of the Nurr1 mutants to interact with RXR was examined using the mammalian two-hybrid assay. The ligand-binding domains (amino acids 353-598; LBD) of both wild-type and mutated Nurr1 variants were cloned in frame with the yeast Gal4 DNA-binding domain (amino acids 1-147) in the pCMX-Gal4 expression vector (Perlmann and Jansson 1995). JEG3 cells were cotransfected with pCMX-Gal4-Nurr1-LBD derivatives and pCMX-VP16-RXR containing the herpes simplex VP16 trans-activation domain followed by the complete coding sequence of human RXRα. A reporter gene with four copies of the Gal4-binding sites was used.
For orientation: A reporter such as luciferase makes a cellular process visible.

The test system of assay [1] is NGFI-B response element (NBRE) reporter. The assay can be described thus: Monomeric reporter gene activation, NBRE reporter in 293 cells (full-length receptor). The note with it: three copies of NBRE reporter, effect of the mutation vs wild-type Nurr1. The class given is cell-based, human. As for the experimental part: The monomeric activity was examined in 293 cells. The full-length receptor derivatives were studied using a reporter gene regulated by three copies of the NGFI-B binding site (NBRE; FIG. A).
The ability of the mutants to activate reporter gene expression as monomers were studied in human embryonic kidney 293 cells. The cells were maintained in Dulbecco's modified Eagles medium with 10% fetal calf serum. Transfections were carried out as with JEG3 cells except that a reporter regulated by three copies of the NGFI-B (nerve growth factor inducible-B)response element (Wilson et al., 1991) (NBREs) was used. The transcriptional activities of the mutated ligand-binding domains were assessed as fusions to the Gal4 DNA-binding domain and a reporter gene with four copies of the Gal4-binding sites was used. All the transfection experiments were performed in quadruplicate dishes and each experiment has been repeated at least twice with essentially identical results. The results of a representative experiment are shown.

B1: KLL(554-556)AAA: mouse Nurr1 I-box mutant, residues Lys554-Leu555-Leu556 substituted by three alanines (protein)
chain: MPCVQAQYGSSPQGASPASQSYSYHSSGEYSSDFLTPEFVKFSMDLTNTEITATTSLPSFSTFMDNYSTGYDVKPPCLYQMPLSGQQSSIKVEDIQMHNYQQHSHLPPQSEEMMPHSGSVYYKPSSPPTPSTPSFQVQHSPMWDDPGSLHNFHQNYVATTHMIEQRKTPVSRLSLFSFKQSPPGTPVSSCQMRFDGPLHVPMNPEPAGSHHVVDGQTFAVPNPIRKPASMGFPGLQIGHASQLLDTQVPSPPSRGSPSNEGLCAVCGDNAACQHYGVRTCEGCKGFFKRTVQKNAKYVCLANKNCPVDKRRRNRCQYCRFQKCLAVGMVKEVVRTDSLKGRRGRLPSKPKSPQDPSPPSPPVSLISALVRAHVDSNPAMTSLDYSRFQANPDYQMSGDDTQHIQQFYDLLTGSMEIIRGWAEKIPGFADLPKADQDLLFESAFLELFVLRLAYRSNPVEGKLIFCNGVVLHRLQCVRGFGEWIDSIVEFSSNLQNMNIDISAFSCIAALAMVTERHGLKEPKRVEELQNKIVNCLKDHVTFNNGGLNRPNYLSAAAGKLPELRTLCTQGLQRIFYLKLEDLVPPPAIIDKLFLDTLPF
Consider B1, for which, in the assay with Nurr1-RXR heterodimer, the “ability of Nurr1 to promote RXR-mediated transactivation” value (shortened to “ability of Nurr1”) is listed as “abolished”. In assay [1], the “ability to activate reporter gene expression as monomers (monomeric activity)” value (shortened to “ability … (monomeric activity)”) is “intact”.

B2: K558A: mouse Nurr1 I-box mutant, Lys558 substituted by alanine (protein)
chain: MPCVQAQYGSSPQGASPASQSYSYHSSGEYSSDFLTPEFVKFSMDLTNTEITATTSLPSFSTFMDNYSTGYDVKPPCLYQMPLSGQQSSIKVEDIQMHNYQQHSHLPPQSEEMMPHSGSVYYKPSSPPTPSTPSFQVQHSPMWDDPGSLHNFHQNYVATTHMIEQRKTPVSRLSLFSFKQSPPGTPVSSCQMRFDGPLHVPMNPEPAGSHHVVDGQTFAVPNPIRKPASMGFPGLQIGHASQLLDTQVPSPPSRGSPSNEGLCAVCGDNAACQHYGVRTCEGCKGFFKRTVQKNAKYVCLANKNCPVDKRRRNRCQYCRFQKCLAVGMVKEVVRTDSLKGRRGRLPSKPKSPQDPSPPSPPVSLISALVRAHVDSNPAMTSLDYSRFQANPDYQMSGDDTQHIQQFYDLLTGSMEIIRGWAEKIPGFADLPKADQDLLFESAFLELFVLRLAYRSNPVEGKLIFCNGVVLHRLQCVRGFGEWIDSIVEFSSNLQNMNIDISAFSCIAALAMVTERHGLKEPKRVEELQNKIVNCLKDHVTFNNGGLNRPNYLSKLLGALPELRTLCTQGLQRIFYLKLEDLVPPPAIIDKLFLDTLPF
As for B2, the “ability of Nurr1” value in the assay on Nurr1-RXR heterodimer is reported as “only a modest effect”.

B3: GKL(557-559)AAA: mouse Nurr1 I-box mutant, residues 557-559 (GKL) substituted by three alanines (protein)
chain: MPCVQAQYGSSPQGASPASQSYSYHSSGEYSSDFLTPEFVKFSMDLTNTEITATTSLPSFSTFMDNYSTGYDVKPPCLYQMPLSGQQSSIKVEDIQMHNYQQHSHLPPQSEEMMPHSGSVYYKPSSPPTPSTPSFQVQHSPMWDDPGSLHNFHQNYVATTHMIEQRKTPVSRLSLFSFKQSPPGTPVSSCQMRFDGPLHVPMNPEPAGSHHVVDGQTFAVPNPIRKPASMGFPGLQIGHASQLLDTQVPSPPSRGSPSNEGLCAVCGDNAACQHYGVRTCEGCKGFFKRTVQKNAKYVCLANKNCPVDKRRRNRCQYCRFQKCLAVGMVKEVVRTDSLKGRRGRLPSKPKSPQDPSPPSPPVSLISALVRAHVDSNPAMTSLDYSRFQANPDYQMSGDDTQHIQQFYDLLTGSMEIIRGWAEKIPGFADLPKADQDLLFESAFLELFVLRLAYRSNPVEGKLIFCNGVVLHRLQCVRGFGEWIDSIVEFSSNLQNMNIDISAFSCIAALAMVTERHGLKEPKRVEELQNKIVNCLKDHVTFNNGGLNRPNYLSKLLAAAPELRTLCTQGLQRIFYLKLEDLVPPPAIIDKLFLDTLPF
B3: the “ability of Nurr1” value with Nurr1-RXR heterodimer is “abolished”. Further, the “ability … (monomeric activity)” value in assay [1] was “intact”.

B4: L562A: mouse Nurr1 I-box mutant, Leu562 substituted by alanine (protein)
chain: MPCVQAQYGSSPQGASPASQSYSYHSSGEYSSDFLTPEFVKFSMDLTNTEITATTSLPSFSTFMDNYSTGYDVKPPCLYQMPLSGQQSSIKVEDIQMHNYQQHSHLPPQSEEMMPHSGSVYYKPSSPPTPSTPSFQVQHSPMWDDPGSLHNFHQNYVATTHMIEQRKTPVSRLSLFSFKQSPPGTPVSSCQMRFDGPLHVPMNPEPAGSHHVVDGQTFAVPNPIRKPASMGFPGLQIGHASQLLDTQVPSPPSRGSPSNEGLCAVCGDNAACQHYGVRTCEGCKGFFKRTVQKNAKYVCLANKNCPVDKRRRNRCQYCRFQKCLAVGMVKEVVRTDSLKGRRGRLPSKPKSPQDPSPPSPPVSLISALVRAHVDSNPAMTSLDYSRFQANPDYQMSGDDTQHIQQFYDLLTGSMEIIRGWAEKIPGFADLPKADQDLLFESAFLELFVLRLAYRSNPVEGKLIFCNGVVLHRLQCVRGFGEWIDSIVEFSSNLQNMNIDISAFSCIAALAMVTERHGLKEPKRVEELQNKIVNCLKDHVTFNNGGLNRPNYLSKLLGKLPEARTLCTQGLQRIFYLKLEDLVPPPAIIDKLFLDTLPF
As for B4, in the assay with Nurr1-RXR heterodimer, the “ability of Nurr1” value was “reduced”.

B5: E561A: mouse Nurr1 I-box mutant, Glu561 substituted by alanine (protein)
chain: MPCVQAQYGSSPQGASPASQSYSYHSSGEYSSDFLTPEFVKFSMDLTNTEITATTSLPSFSTFMDNYSTGYDVKPPCLYQMPLSGQQSSIKVEDIQMHNYQQHSHLPPQSEEMMPHSGSVYYKPSSPPTPSTPSFQVQHSPMWDDPGSLHNFHQNYVATTHMIEQRKTPVSRLSLFSFKQSPPGTPVSSCQMRFDGPLHVPMNPEPAGSHHVVDGQTFAVPNPIRKPASMGFPGLQIGHASQLLDTQVPSPPSRGSPSNEGLCAVCGDNAACQHYGVRTCEGCKGFFKRTVQKNAKYVCLANKNCPVDKRRRNRCQYCRFQKCLAVGMVKEVVRTDSLKGRRGRLPSKPKSPQDPSPPSPPVSLISALVRAHVDSNPAMTSLDYSRFQANPDYQMSGDDTQHIQQFYDLLTGSMEIIRGWAEKIPGFADLPKADQDLLFESAFLELFVLRLAYRSNPVEGKLIFCNGVVLHRLQCVRGFGEWIDSIVEFSSNLQNMNIDISAFSCIAALAMVTERHGLKEPKRVEELQNKIVNCLKDHVTFNNGGLNRPNYLSKLLGKLPALRTLCTQGLQRIFYLKLEDLVPPPAIIDKLFLDTLPF
Take B5: the “ability of Nurr1” value in the assay on Nurr1-RXR heterodimer is reported as “no effect”.

B6: PEL(560-562.)AAA: mouse Nurr1 I-box mutant, residues 560-562 (PEL) substituted by three alanines (protein)
chain: MPCVQAQYGSSPQGASPASQSYSYHSSGEYSSDFLTPEFVKFSMDLTNTEITATTSLPSFSTFMDNYSTGYDVKPPCLYQMPLSGQQSSIKVEDIQMHNYQQHSHLPPQSEEMMPHSGSVYYKPSSPPTPSTPSFQVQHSPMWDDPGSLHNFHQNYVATTHMIEQRKTPVSRLSLFSFKQSPPGTPVSSCQMRFDGPLHVPMNPEPAGSHHVVDGQTFAVPNPIRKPASMGFPGLQIGHASQLLDTQVPSPPSRGSPSNEGLCAVCGDNAACQHYGVRTCEGCKGFFKRTVQKNAKYVCLANKNCPVDKRRRNRCQYCRFQKCLAVGMVKEVVRTDSLKGRRGRLPSKPKSPQDPSPPSPPVSLISALVRAHVDSNPAMTSLDYSRFQANPDYQMSGDDTQHIQQFYDLLTGSMEIIRGWAEKIPGFADLPKADQDLLFESAFLELFVLRLAYRSNPVEGKLIFCNGVVLHRLQCVRGFGEWIDSIVEFSSNLQNMNIDISAFSCIAALAMVTERHGLKEPKRVEELQNKIVNCLKDHVTFNNGGLNRPNYLSKLLGKLAAARTLCTQGLQRIFYLKLEDLVPPPAIIDKLFLDTLPF
For B6, the “ability of Nurr1” value in the assay on Nurr1-RXR heterodimer is on record as “abolished”. Besides, the “ability … (monomeric activity)” value in assay [1] is reported as “intact”.
